This assay has as its target TbPar42 N-terminal extended FHA domain (1-177) (T. brucei). Description: NMR titration; 440 uM 15N-labelled NterFHA or PPIase in 50 mM potassium phosphate, pH 6.26, 90%/10% H2O/D2O; peptide added stepwise to 13 mM; 1H-15N-HSQC or SOFAST spectra, 700 MHz, 27 °C.

*1 amine or outer side, *2 acyl side, *3 side chain or, on linkers, in order; H or OH if unused. [ ]: non-standard residue; d: D form. pT = C[C@@H](OP(=O)(O)O)[C@H](N)C(=O)O; Suc = O=C(CCC(=O)[*:2])[*:1]

B1: Suc-Ala-pThr-Pro-Ala-NH2 (peptide)
peptide: Suc-A[pT]PA-NH2
SMILES: C[C@H](NC(=O)[C@@H]1CCCN1C(=O)[C@@H](NC(=O)[C@H](C)NC(=O)CCC(=O)O)[C@@H](C)OP(=O)(O)O)C(N)=O
B1: the Kd came out at 4 mM. In other words, the millimolar range.
